Laboratory results: article PMC7822942

What was measured:
Assay in all cases: thermodynamic integration MD simulation (TIMD; computed, not an experimental measurement)
[1] = molecular target: rat gephyrin E-domain (amino acids 318-736) D664N (other chain of the homodimer); conditions: E-domain dimer; value per mutation point; read off a plot
[2] = molecular target: rat gephyrin E-domain (amino acids 318-736) G375D (other chain of the homodimer); conditions: E-domain dimer; value per mutation point; read off a plot
[3] = molecular target: rat gephyrin E-domain (amino acids 318-736) G545A (other chain of the homodimer); conditions: E-domain dimer; value per mutation point; read off a plot
[4] = molecular target: rat gephyrin E-domain (amino acids 318-736) G545S (other chain of the homodimer); conditions: E-domain dimer; value per mutation point; read off a plot
[5] = molecular target: rat gephyrin G-domain (amino acids 1-188) A91T (other chains of the homotrimer); conditions: G-domain trimer; value per mutation point; read off a plot
[6] = molecular target: rat gephyrin G-domain (amino acids 1-188) V43L (other chains of the homotrimer); conditions: G-domain trimer; value per mutation point; read off a plot

Substance: rat gephyrin E-domain WT (amino acids 318-736) D664N
- ddG [1]: -0.7 kcal/mol

Substance: rat gephyrin E-domain WT (amino acids 318-736) G375D
- ddG [2]: 5.7 kcal/mol

Substance: rat gephyrin E-domain WT (amino acids 318-736) G545A
- ddG [3]: 0.3 kcal/mol

Substance: rat gephyrin E-domain WT (amino acids 318-736) G545S
- ddG [4]: 0.2 kcal/mol

Substance: rat gephyrin G-domain WT (amino acids 1-188) A91T
- ddG [5]: 1.7 kcal/mol

Substance: rat gephyrin G-domain WT (amino acids 1-188) V43L
- ddG [6]: -0.95 kcal/mol
